In the DeepSol protein solubility set:

Test: soluble on expression in E. coli; label from the status in PepcDB or PDB records

Row | Sequence | soluble on expression in E. coli
1 | MGSDKIHHHHHHASCSNDDDEMDKYQKIYIRTGVAPGAEMGAAVVVDCVSNSSTADRSDFEIQLCAVQPVTRDVTAALGVDTLKVDTYNSANKTKCKLLPQDNYTIETSEVVLKTGQTVADSSFQVVLKNIEKLTNPDGYVLPVTLKGVTGMDEQAVSTSMKTVYIRIYTSVLYTSYTKPGNWSAVDRSAWSVSCSNVYADDDAKYGAHLAIDGEINTTWFTWGVANAGECWWNTVLDRPVTLTGFSVTKQSAYGSGYNLRSAEIKVRKEGETEWVTYPRVLTFRNFKGADPQYAAIEPPIPNVKEFRINCLTPDNYTGFAEINLYVKQ | not soluble
2 | MAALFQEASSCPVCSDYLEKPMSLECGCTVCLKCINSLQKEPHGEDLLCCCCSMVSQRNKIRPNRQLERLVSHIKELEPKMKKILQMNPRMRKFQVDMTLDADTANNFLLISDDLRSVRSGLITQNRQDLAERFDVSVCILGSPRFTCGRHYWEVDVGTSTEWDLGVCRESVHCKGKIQLTTELGFWTVSLRDGSRLSASTVPLTFLLVDRKLQRVGIFLDMGMQNVSFFDAESGSHVYTFRSVSAEEPLRPFLAPSIPPNGDQGVLSICPLMNSGTTDAPVRPGEAK | soluble
3 | MATNLIGLDTTQSQKLANALNNLLANYQVFYMNTRGYHWNIQGKEFFELHAKFEEIYTDLQLKIDELAERILTLSARPMHSFSGYLKAAQIKEHTDSIDGRSSMQGLVDGFSILLHQQRDILELAGETGDEGTSALMSDYIREQEKLVWMLNAWLK | not soluble
4 | MGSDKIHHHHHHMETLILTQEEVESLISMDEAMNAVEEAFRLYALGKAQMPPKVYLEFEKGDLRAMPAHLMGYAGLKWVNSHPGNPDKGLPTVMALMILNSPETGFPLAVMDATYTTSLRTGAAGGIAAKYLARKNSSVFGFIGCGTQAYFQLEALRRVFDIGEVKAYDVREKAAKKFVSYCEDRGISASVQPAEEASRCDVLVTTTPSRKPVVKAEWVEEGTHINAIGADGPGKQELDVEILKKAKIVVDDLEQAKHGGEINVAVSKGVIGVEDVHATIGEVIAGLKDGRESDEEITIFDSTGLAIQDVAVAKVVYENALSKNVGSKIKFFRI | soluble
5 | MCMHNSGFNLNLPPWVIASRHFNDNPHPLEVQGVRLANRFLFERLDAIASPDERGTVFNDYMSVKFQLHLWQEQATPSARKSLKNSYLRYLRGWMMDSNSVEGAVLKGWVESRMGIVPSFHKARITGIHTESYYGYVVDRTAGSKRTSAINSQLDILYEFCQYELARRFPGELWVTLYRGTFAADDYDVVEELGRREKIIRFNNLVSFTSHEERAWEFGSTVWEIRAPLSKVFFFDDLLPGSILKGEGEYLVIGGEYRVRRVMCTVLEHHHHHH | not soluble
6 | MAEGLRERKKRQTRQYISDVATGLFLERGFEAVTVAEVADAANVSVNTVYNYFPAKEDLFLDRSKGVIDRLSRWVRGRRDGESAAGAVLRELRDEVESVSPRVGLMDGYATFMKVIQDSPALRSRMWAIGQEVLLNLEHTLREETGSADDDMTPTLMAGQINWLHGTVLAAIGGRMVAGGKPSEVSRDMLLLLDEMEELLSEKVLNYAVRGAL | not soluble
7 | MAINLELPRKLQAIIVKTHQGAAEMMRPIARKYDLKEHAYPVELDTLINLFEGAAESFNFAGAHSLRDEDEGKDENHNGANMAAVVQTMEASWGDVAMMLSLPYQGLGNAAISAVATDEQLERLGKVWAAMAITEPEFGSDSAAVSTTATLDGDEYVINGEKIFVTAGSRATHIVVWATLDKSLGRPAIKSFIVPREHPGVTVERLEHKLGIKGSDTAVIRFDNARIPKGNLLGNPEIEVGKGFAGVMETFDNTRPIVAAMAVGIGRAALEEIRSVLTGAGVEISYDKPSHTQSAAAAEFLRMEADWEASYLLSLRAAWQADNNIPNSKEASMSKAKAGRMASDVTCKTVELAGTTGYSEQSLLEKWARDSKILDIFEGTQQIQQLVVARRLLGLSSSELK | not soluble
8 | MKKLYIITGPAGVGKSTTCKRLAAQLDNSAYIEGDIINHMVVGGYRPPWESDELLALTWKNITDLTVNFLLAQNDVVLDYIAFPDEAEALAQTVQAKVDDVEIRFIILWTNREELLRRDALRKKDEQMGERCLELVEEFESKGIDERYFYNTSHLQPTNLNDIVKNLKTNPRFIFCMAGDPLEHHHHHH | soluble
9 | MSLPAKRKLTMRHIRQMLRLAGSGTSSREIAVMLGIARSTVQDNLKRAAMAGLSWALASGLTDDVLEAKLFVHPGVKRGQRLRQEPDWGPLSIELKKPGVTLLILWEEYRSAHPDGYGYSRFCELFRGFEKRLSPTMRQEHIAGDKVFVDYSGKKVPIVDRKTGEIREAELFLGVLGASSYCTRGRSVHLGELLRRAWIFQHLGNREGHHHHHH | not soluble
10 | MMQRRAVFGLFLLPLARGQGTCAPTPALTQGPYYLRDVPQREDLREGLPGVPLRLLLRVRDRACRPLQGARVDLWHTDALGRYSGVNAPGTFCRGWQATDERGEVAFLTLFPGWYPSRTPHLHLRVEAGGRVFATQLFFPEEVQRQVYALPPYRERGMPRVNNRQDGLFRADLLLRLEREGEAYRGAFVLTLPG | soluble
11 | MGSSHHHHHHSSGLVPRGSHMANVAIIGTEKSGRTSLAANLGKKGTSSDITMYNNDKEGRNMVFVDAHSYPKTLKSLITALNISDIAVLCIPPQGLDAHTGECIIALDLLGFKHGIIALTRSDSTHMHAIDELKAKLKVITSGTVLQDWECISLNTNKSAKNPFEGVDELKARINEVAEKIEAENAELNSLPARIFIDHAFNVTGKGCVVLGVVKQGISKDKDKTKIFPLDRDIEIRSIQSHDVDIDSAPAGTRVGMRLKNVQAKDIERGFIISDKEIVTTDYTLECTVSKFTKKIEPASVLHLFVGLQSEPVRVEKILVDGNEVEEAKPGSTCVLELSGNKKLAYSKQDRFLLANLDLTQRFAAYGFSK | soluble
12 | QTFGHGQARAFVLSPVMPVWDQGAFAGPLIEHFIRSGHQVTVFDSLSLPAVPDECFSGFAERWADALEPWGVPDVLVGVALGGALAQALAGISFLSVTPALLLLSSPSKADALLDARLGRMADLAEQGHVRQAKRLLDELVLPEGQAHAEQDRFDTETDALLAPQGRRLVRGFRLLDGVNVSERLCDYEGRVLSVFGGKSQLVGADHVLRTKGSNQHS | not soluble
13 | MSLSETASAENLLGAYLKDRRTRLDAAAFGLSGSRRRTPGLRREEVAQRANISPTWYTWLEQGRGGAPSADVLDRIARALMLTDVEREHLFLIGLGRPPEVRYQASDGVSPRLQRVLDALAFSPALVRTATWDVVAWNRAATAVLTDYGAIPPGQRNILRFIFCDPRVRAAQYDWDSVARFVVAAFRADAARAGAVSHVADFVDELCRTSPEFAALWRDNDVRHHGDGTKRLRHPVHGTMSFEYSSFNVEGRSDLSMIVYNPATPEDADRIRTLLAERADEGHHHHHH | soluble
14 | MGSDKIHHHHHHDKNSAPGFSFTTDSILTLTFDKELDAAFVGVGTQNYNPVGMRRSGDTLFIANRAEGSDGVWVVRASTGELLYSLTGWTYNGKNEKFDNQVMDVAVSSDYIFVVNRSSRIDLFRRNDYSYVTTIGRTGWQSSSLLQCEAAEVAGDKLFIRDKQKIKVVQISDCTPENRFKVPVFAQNTDSTSSNNGFNLESVARHEGLIYVSDYETSRILVIDPATVAVKGEPVRFLRSYRMPNKPLSMGFFQNEMYVVCANNCIVRVDLRTGKELGSYSSFAGGVGLGTPGRLLFHNDTFYLAGRNANAPRLIQGKVMFVEISELD | not soluble
15 | MAEHPIQGLMETAMESIKEMVDVNTIVGDAVQAPDGTVIIPISKVTFGFAAGGGEFASCCSVDEKGEDSSDDSSKPEIKFPFAGGSGAGVSINPVAFMVVGQGQIKLLPVNINSSLEKILDLIPEIIEKTKDSVKKNLKVKKEIKPGNGESCAKSSKEDENE | not soluble
16 | MSLSKRAYFGTDGIRGQANKHPMTAEVALRVGLAAGKLFRSQDERRHLVVIGKDTRLSGYMIEPALVAGLTSVGLDVRLFGPLPTPAVAMMTRSMRADLGIMISASHNSFADNGIKLFGPDGYKLSDAQELGIEALMDQGLQEGLAAPRELGRVKRIDDAQARYVEIVKATFPRHLNLSGLRIVIDCANGAAYKVAPTALYELGAEVITLGVSPDGTNINEECGSTHPEAMAKMVREYRADIGIALDGDADRLVICDEKGVVVDGDQIMAIIAAASHKAGTLKGGGVVATVMSNLGLERQLNTMGLSLERTAVGDRYVMQRMREGGFNVGGEQSGHLILSDFSTTGDGLIAALQVLAVMVETDKPMSALGRQFEPVPQLLENVRFVGGKPLEAAAVKEAIADGEAQLNGAGRIVVRASGTEPLIRIMAEGDDPALVKKVVKSIASAVKEGHHHHHH | soluble
17 | MSLNRIAFSAAHVVADPLAASDPWLEAAIDWDHTIAYRQRLWDLGLGVAEAMDTAQRGMGLDWPTSLDLIRRSVEAAKAHGPEALVFSGAGTDHLAPEAARSLDDVIRAYEEQVAAVEKVGGRIILMASRALARIGTSAADYETVYGRILSQVREPVIIHWLGDMFDPALAGYWGTRDLDAAMDTAVAIINAHAAKVDGVKISLLDKDKEIAMRRRLDPAVRMYTGDDFNYAELVAGDAQGYSHALLGIFDAIAPAASAALTALAAGDEAGFHDILAPTVPLSRHIFRAPTRFYKTGVVFMAYLNGHQDHFTMVGGQESARSTLHLAELFRLADRAGLLTDPDLAVQRMRAVLAVRGVEAEGHHHHHH | not soluble
18 | MAHHHHHHMNRHNKFYAEVADELEGEDYYDDDDDDYNNDEEYEEEGEYDEAAYETTASAASPEPVHMPKSTTQATAPAAAAVRVNPYTTISPQVDDDYELLDVLLPQLHALWKTNAPTMLPLSEGEAVTALRASNYDVEPAFLQLKEKRDEERSKRGGGVLRVAAAAGPAKRASTPPTVEPPEPGGEAASDNEGNSASPSASSGRTTITLRGWKGASQRRTKQMLEMEPDKEKPDCTFVIAGHVDAGKSTTLGHLLLLLGRVSIQDVERNEKADRTHHKDSFKYAWLLDQCEEERRRGVTIDSGSFCFETEHRRVHILDAPGHKDFVLNMISSATQADAALLVVTATNSEFETGLHHGTKSHLLVLKTLGVGSIVVAVNKMDAVAYSQERYDYVVRELQLLLKQTRIPEEAIIGFCPISGMTGVNITQRGAKETPWYHDLSLIEMIDRCPLESRLVNSPLRLSLQDVQGTTLYAKVESGRLFTGDMVHFVPSEVRVTIKSIQKPTVAGPVLVAFAGETVEISTNSSVTGLYPGCVGCEPNLLIRSSTDFEAHIQTFRTLTKAILPGASFTIIVHALTVRVHVAALISKMDSKTGNWSKGMVKCVPPAAQAMMLFRAESPVALEPATECRALGRFVLQQDGETVAGGLVTRVVDKA | not soluble
19 | MPHFNFDYQEFLMMVQHLKRRPLSRYLKDFKHSQTHCAHCRKLLDRITLVRDGKIVNKIEISRLDTLLDEKGWQTEQQSWAALCRFCGDLHCKTQSDFFDIIGFKKFLFEQTEMSPGTVREYVVRLRRLGNHLHEQNISLDQLQDGFLDEILAPWLPTTSTNNYRIALRKYQHYQRQTCTGLVQKSSSLPASDIY | not soluble
20 | MMTQIIHTEKAPAAIGPYVQAVDLGNLVLTSGQIPVNPATGEVPADIVAQARQSLENVKAIIEKAGLTAADIVKTTVFVKDLNDFAAVNAEYERFFKENNHPNFPARSCVEVARLPKDVGLEIEAIAVRK | soluble
21 | MERMRSIWKGSIAFGLVNVPVKVYSATEDHDIRFHQVHAKDGGRIKYNRVCSECGNVVQYADIDKAYDSDDGVRVVLTDDDFGKLPAAEKHEIPVLQFVPTEQIDPILFEKSYFLEPDSSSPKAYVLLATALENSDRTALVHFTLRQRTRLAAMRSRDGVLVIQTLLWPDEVRVAEFSSLDGVDK | not soluble
